Assay results from patent US12258605B2, “Alkane oxidation by modified hydroxylases” (The California Institute of Technology, priority 2005, dated 2025).
Positions count from the first letter of the chain named. Numbers in names are those of the source. Entries after “also recorded” stand apart in the source; their conditions may differ.

B1: 35-E11: P450 BM-3 variant, SEQ ID NO:7: 53-5H substitutions plus E464G and I710T (protein)
chain: TIKEMPQPKTFGELKNLPLLNTDKPVQALMKIADELGEIFKFEAPGCVTRYLSSQRLIKEACDESRFDKNLSQALKFFRDFSGDGLFTSWTHEINWKKAHNILLPSFSQQAMKGYHAMMVDIAVQLVQKWERLNADEHIEVSEDMTRLTLDTIGLCGFNYRFNSFYRDQPHPFIISMVRALDEVMNKLQRANPDDPAYDENKRQCQEDIKVMNDLVDKIIADRKARGEQSDDLLTQMLNGKDPETGEPLDDGNISYQIITFLIAGHETTSGLLSFALYFLVKNPHVLQKVVEEAARVLVDPVPSYKQVKQLKYVGMVLNEALRLWPTFPAFSLYAKEDTVLGGEYPLEKGDEVMVLIPQLHRDKTIWGDDVEEFRPERFENPSAIPQHAFKPFGNGQRACIGQQFALHEATLVLGMMLKHFDFEDHTNYELDIKETLTLKPEGFVVKAKSKKIPLGGIPSPSTGQSAKKVRKKAENAHNTPLLVLYGSNMGTAEGTARDLADIAMSKGFAPQVATLDSHAGNLPREGAVLIVTASYNGHPPDNAKQFVDWLDQASADEVKGVRYSVFGCGDKNWATTYQKVPAFIDETLAAKGAENIADRGEADASDDFEGTYEEWREHMWSDVAAYFNLDIENSEDNKSTLSLQFVDSAADMPLAKMHGAFSTNVVASKELQQPGSARSTRHLEIELPKEASYQEGDHLGVIPRNYEGTVNRVTARFGLDASQQIRLEAEEEKLAHLPLAKTVSVEELLQYVELQDPVTRTQLRAMAAKTVCPPHKVELEALLEKQAYKEQVLAKRLTMLELLEKYPACEMKFSEFIALLPSIRPRYYSISSSPRVDEKQASITVSVVSGEAWSGYGEYKGIASNYLAELQEGDTITCFISTPQSEFTLPKDPETPLIMVGPGTGVAPFRGFVQARKQLKEQGQSLGEAHLYFGCRSPHEDYLYQEELENAQSEGIITLHTAFSRMPNQPKTYVQHVMEQDGKKLIELLDQGAHFYICGDGSQMAPAVEATLMKSYADVHQVSEADARLWLQQLEEKGRYAKDVWAG
modifications: mutant P450 35-E11 protein sequence
B2: P450PMO: P450 BM-3 variant, SEQ ID NO:125; 7-7 plus G443A and D698G; propane monooxygenase (protein)
chain: B1 chain with L52I, A74E, S82G, L188P, I366V, G443A, D698G
modifications: Mutant P450PMO protein sequence
notes: 7-7 plus G443A and D698G; propane monooxygenase
B3: 20-D3: P450 BM-3 variant, SEQ ID NO:11; 35-E11 plus H285R (protein)
chain: B1 chain with H285R
modifications: mutant P450 20-D3 protein sequence
notes: 35-E11 plus H285R
B4: Wild-type BM-3: wild-type cytochrome P450 BM-3 from Bacillus megaterium, SEQ ID NO:1 (protein, listed as Bacillus megaterium)
chain: TIKEMPQPKTFGELKNLPLLNTDKPVQALMKIADELGEIFKFEAPGRVTRYLSSQRLIKEACDESRFDKNLSQALKFVRDFAGDGLFTSWTHEKNWKKAHNILLPSFSQQAMKGYHAMMVDIAVQLVQKWERLNADEHIEVPEDMTRLTLDTIGLCGFNYRFNSFYRDQPHPFITSMVRALDEAMNKLQRANPDDPAYDENKRQFQEDIKVMNDLVDKIIADRKASGEQSDDLLTHMLNGKDPETGEPLDDENIRYQIITFLIAGHETTSGLLSFALYFLVKNPHVLQKAAEEAARVLVDPVPSYKQVKQLKYVGMVLNEALRLWPTAPAFSLYAKEDTVLGGEYPLEKGDELMVLIPQLHRDKTIWGDDVEEFRPERFENPSAIPQHAFKPFGNGQRACIGQQFALHEATLVLGMMLKHFDFEDHTNYELDIKETLTLKPEGFVVKAKSKKIPLGGIPSPSTEQSAKKVRKKAENAHNTPLLVLYGSNMGTAEGTARDLADIAMSKGFAPQVATLDSHAGNLPREGAVLIVTASYNGHPPDNAKQFVDWLDQASADEVKGVRYSVFGCGDKNWATTYQKVPAFIDETLAAKGAENIADRGEADASDDFEGTYEEWREHMWSDVAAYFNLDIENSEDNKSTLSLQFVDSAADMPLAKMHGAFSTNVVASKELQQPGSARSTRHLEIELPKEASYQEGDHLGVIPRNYEGIVNRVTARFGLDASQQIRLEAEEEKLAHLPLAKTVSVEELLQYVELQDPVTRTQLRAMAAKTVCPPHKVELEALLEKQAYKEQVLAKRLTMLELLEKYPACEMKFSEFIALLPSIRPRYYSISSSPRVDEKQASITVSVVSGEAWSGYGEYKGIASNYLAELQEGDTITCFISTPQSEFTLPKDPETPLIMVGPGTGVAPFRGFVQARKQLKEQGQSLGEAHLYFGCRSPHEDYLYQEELENAQSEGIITLHTAFSRMPNQPKTYVQHVMEQDGKKLIELLDQGAHFYICGDGSQMAPAVEATLMKSYADVHQVSEADARLWLQQLEEKGRYAKDVWAG

Tests used:
[1] = Methane to methanol conversion (alcohol oxidase/Purpald); format: biochemical; details: for Methane TTN: methane to methanol
Procedure: The 35-E11 variant was tested for the ability to convert methane to methanol using the method of Anthon and Barrett (Agric. Food Chem., 52:3749 (2004)). The method was optimized so that it could detect methanol concentrations in water as low as 10 μM.
The mutant BM-3 enzymes described below were purified using published procedures and used as catalysts in small reactions with methane. In glass head space vials containing magnetic stirring bars, BM-3 catalyst was added to 0.1 M potassium phosphate buffer (pH=8) saturated with methane. The vials were then crimped shut and charged to 20 psi with methane. To start the biotransformation, an NADPH regeneration system consisting of NADP+, isocitrate, and isocitric dehydrogenase was added through a syringe. The reaction was allowed to stir 12-15 hours. Methanol production was measured using a coupled enzyme assay. Aliquots of the reaction were transferred to 96-well microtitre plates and reacted with the enzyme alcohol oxidase for 5 minutes at room temperature. Alcohol oxidase converts the methanol produced by the BM-3 variants into formaldehyde which can be detected with the dye Purpald. To detect formaldehyde and quench the alcohol oxidase reaction, a solution of Purpald in 2 M NaOH was added and allowed to react for one hour. The purple color that Purpald forms in the presence of formaldehyde was quantified one hour later by spectrophotometrically reading the well at 550 nm and comparing the absorbance against similarly-treated solutions of BM-3, NADPH regeneration system, and methane-free buffer spiked with known concentrations of methanol. The results of these biotransformations are reported in Table 3 and sample spectra from the colorimetric assay are shown in FIG. 7.
Reactions for enzyme-catalyzed conversion of methane to methanol were carried out in 10 mL glass headspace vials. A 470 μL reaction mixture containing 5 μM purified BM-3 variant in 0.1 M potassium phosphate buffer (pH 8.0) was first added to the vial. The vial was immediately topped with a septum, pressurized with 30 psi of methane and shaken at 4° C. for 1 hour. […] For determination of total turnover, the reaction was allowed to proceed for 20 hours at room temperature.
The amount of methanol product formed during the 20 hr methane reaction was quantified colorimetrically with the use of alcohol oxidase and Purpald. 190 μL of the reaction mixture is transferred onto a single cell of a 96 well plate. 10 μL of 0.05 U/μL solution of alcohol oxidase (from Pichia pastoris, purchased from Sigma-Aldrich) was added to cell and allowed to incubate at room temperature for 5 minutes. During this time, the alcohol oxidase converts the methanol into formaldehyde. Purpald (168 mM in 2 M NAOH) was then added to form a purple product with the formaldehyde in solution. The purple color was read approximately 1 hour later at 550 nm using a Spectramax Plus microtiter plate reader. The concentration of methanol was determined based on the measure absorbance in comparison to a methanol calibration curve. The methanol calibration curve was generated with several standards. Each standard contained 100 μL of a methanol solution (10, 20, 40, 60, 100 μM) and 90 μL of the methane reaction mixture described above, without the methane pressurization.
The relative dimethyl ether (DME) activity was measured, 1 hour after treatment with Purpald, as the average net and absorbance at 550 nm from 8 microtitre plate DME reactions of the mutant compared to 8 equivalent reactions of 35-E11. All values were normalized by measuring the P450 concentration in each well with CO binding. “Asteriks” indicate criteria used to select mutants from libraries for further characterization. The oxidation rate is measured as absorbance change at 340 nm over 1 minute upon the addition of NADPH to 8 microtitre plate wells containing P450-containing cell lysate and compared to 8 equivalent reactions of 35-E11. […]

Reactions on laurate = format: biochemical; details: laurate 2 mM, 5 hours, room temperature
Procedure: Reactions on laurate. P450PMO activity on laurate was tested mixing the substrate (2 mM) with purified protein (up to 0.5 μM) in 100 mM KPi pH 8.0 buffer, and adding NADPH to final concentration of 1 mM. Reaction mixtures were incubated for 5 hours at room temperature under gentle stirring. Analysis of the hydroxylated products was carried out by derivatization with N-methyl-N-trimethylsilylheptafluorobutyramide (Aldrich) followed by GC analysis according to a published procedure. A control experiment was carried out using wild-type P450BM3.
Products from alkane reactions were identified and quantified by gas chromatography using authentic standards and calibration curves with internal standards. For the reactions with alkanes from pentane to decane, GC analyses were carried out using a Shimadzu GC-17A gas chromatograph, Agilent HP5 column (30 m×0.32 mm×0.1 μm film), 1 μL injection, FID detector, and the following separation program: 250° C. inlet, 250° C. detector, 50° C. oven for 3 min, 5° C./min gradient to 100° C., 25° C./min gradient to 230° C., and 230° C. for 3 min. […] Organic solutions were analyzed by FID-GC. […]

Molecule	methanol production from methane ([1]; assay detects methanol as low as 10 μM)	Methane TTN [1]	hydroxylation products of laurate (Reactions on laurate)
B1	producing methanol from methane	8	
B2			no hydroxylation product could be detected; also recorded: no detectable amounts of hydroxylated fatty acids
B3		10	
B4			multiple hydroxylation products were detected
